According to doi:10.1101/2020.08.17.254201:

What was measured:
[1] = target: SgEsaA_(332-725) (Streptococcus gallolyticus ATCC 43143); assay: SEC-MALS
[2] = target: SiEsaA_(328-685), fragment of Streptococcus intermedius B196 EsaA (Streptococcus intermedius B196); assay: SEC-MALS

Substance	stoichiometry N [1]	stoichiometry N [2]
SgEsaA_(332-725) (domain or fragment)	2	
SiEsaA_(328-685), fragment of Streptococcus intermedius B196 EsaA (domain or fragment)		2
